The source of these data is patent US20150110806A1.

The assay deals with CD147 expressed on human endothelial cells (hCMEC/D3, hBMEC) and human brain sections (human) (UniProt P35613). Description: cell-based or functional assay.

MBP-PilV: the bacterial adhesion to hCMEC/D3 cells (wild-type Nm, cells pretreated with 10 µg/ml MBP-pilin) came to 50 % reduction.

Take anti-CD147 antibody MEM-M6/1: the initial attachment of Nm to hBMEC cells under flow conditions (10 µg/ml antibody) turned out to be 20 % reduction.

With anti-CD147 antibody MEM-M6/6, the initial attachment of Nm to hBMEC cells under flow conditions (10 µg/ml antibody) turned out to be 75 % inhibition.

For MBP-PilE (from UniProt P0AEX9 27-392), the bacterial adhesion to hCMEC/D3 cells (wild-type Nm, cells pretreated with 10 µg/ml MBP-pilin) was determined as 60 % reduction.
